# From IntAct's records for PubMed 19804848
# B1: Syntaxin-binding protein 2 (Homo sapiens), Q15833 (parent)
# chain: MAPSGLKAVVGEKILSGVIRSVKKDGEWKVLIMDHPSMRILSSCCKMSDILAEGITIVEDINKRREPIPSLEAIYLLSPTEKSVQALIKDFQGTPTFTYKAAHIFFTDTCPEPLFSELGRSRLAKVVKTLKEIHLAFLPYEAQVFSLDAPHSTYNLYCPFRAEERTRQLEVLAQQIATLCATLQEYPAIRYRKGPEDTAQLAHAVLAKLNAFKADTPSLGEGPEKTRSQLLIMDRAADPVSPLLHELTFQAMAYDLLDIEQDTYRYETTGLSEAREKAVLLDEDDDLWVELRHMHIADVSKKVTELLRTFCESKRLTTDKANIKDLSQILKKMPQYQKELNKYSTHLHLADDCMKHFKGSVEKLCSVEQDLAMGSDAEGEKIKDSMKLIVPVLLDAAVPAYDKIRVLLLYILLRNGVSEENLAKLIQHANVQAHSSLIRNLEQLGGTVTNPGGSGTSSRLEPRERMEPTYQLSRWTPVIKDVMEDAVEDRLDRNLWPFVSDPAPTASSQAAVSARFGHWHKNKAGIEARAGPRLIVYVMGGVAMSEMRAAYEVTRATEGKWEVLIGSSHILTPTRFLDDLKALDKKLEDIALP
# partner: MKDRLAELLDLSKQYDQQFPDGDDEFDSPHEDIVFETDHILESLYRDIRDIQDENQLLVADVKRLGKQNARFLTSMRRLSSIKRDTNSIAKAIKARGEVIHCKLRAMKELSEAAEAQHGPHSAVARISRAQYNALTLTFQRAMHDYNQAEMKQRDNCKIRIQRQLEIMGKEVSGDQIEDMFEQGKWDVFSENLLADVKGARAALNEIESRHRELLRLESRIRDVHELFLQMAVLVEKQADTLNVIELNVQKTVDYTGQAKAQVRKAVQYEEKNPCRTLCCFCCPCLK
# Variants of: B1
# Conditions: with stx11_human STX11, O75558
row,Variant,effect of a mutation on the interaction
1,MAPSGLKAVVGEKILSGVIRSVKKDGEWKVLIMDHPSMRILSSCCKMSDILAEGITIVEDINKRREPIPSLEAIYLLSPTEKSVQALIKDFQGTPTFTYKAAHIFFTDTCPEPLFSELGRSRLAKVVKTLKEIHLAFLPYEAQVFSLDAPHSTYNLYCPFRAEERTRQLEVLAQQIATLCATLQEYPAIRYRKGPEDTAQLAHAVLAKLNAFKADTPSLGEGPEKTRSQLLIMDRAADPVSPLLHELTFQAMAYDLLDIEQDTYRYETTGLSEAREKAVLLDEDDDLWVELRHMHIADVSKKVTELLRTFCESKRLTTDKANIKDLSQILKKMPQYQKELNKYSTHLHLADDCMKHFKGSVEKLCSVEQDLAMGSDAEGEKIKDSMKLIVPVLLDAAVPAYDKIRVLLLYILLRNGVSEENLAKLIQHANVQAHSSLIRNLEQLGGTVTNPGGSGTSSRLEPRERMEPTYQLSRWTLVIKDVMEDAVEDRLDRNLWPFVSDPAPTASSQAAVSARFGHWHKNKAGIEARAGPRLIVYVMGGVAMSEMRAAYEVTRATEGKWEVLIGSSHILTPTRFLDDLKALDKKLEDIALP [P477L],disrupting interaction strength
2,MAPSGLKAVVGEKILSGVIRSVKKDGEWKVLIMDHPSMRILSSCCKMSDILAEGITIVEDINKRREPIPSLEAIYLLSPTEKSVQALIKDFQGTPTFTYKAAHIFFTDTCPEPLFSELGRSRLAKVVKTLKEIHLAFLPYEAQVFSLDAPHSTYNLYCPFRAEERTRQLEVLAQQIATLCATLQEYPAIRYRKGPEDTAQLAHAVLAKLNAFKADTPSLGEGPEKTRSQLLIMDRAADPVSPLLHELTFQAMAYDLLDIEQDTYRYETTGLSEAREKAVLLDEDDDLWVELRHMHIADVSKKVTELLRTFCESKRLTTDKANIKDLSQILKKMPQYQKELNKYSTHLHLADDCMKHFKGSVEKLCSVEQDLAMGSDAEGEKIKDSMKLIVPVLLDAAVPAYDKIWVLLLYILLRNGVSEENLAKLIQHANVQAHSSLIRNLEQLGGTVTNPGGSGTSSRLEPRERMEPTYQLSRWTPVIKDVMEDAVEDRLDRNLWPFVSDPAPTASSQAAVSARFGHWHKNKAGIEARAGPRLIVYVMGGVAMSEMRAAYEVTRATEGKWEVLIGSSHILTPTRFLDDLKALDKKLEDIALP [R405W],disrupting interaction strength
3,MAPSGLKAVVGEKILSGVIRSVKKDGEWKVLIMDHPSMRILSSCCKMSDILAEGITIVEDINKRREPIPSLEAIYLLSPTEKSVQALIKDFQGTPTFTYKAAHIFFTDTCPEPLFSELGRSRLAKVVKTLKEIHLAFLPYEAQVFSLDAPHSTYNLYCPFRAEERTRQLEVLAQQIATLCATLQEYPAIRYRKGPEDTAQLAHAVLAKLNAFKADTPSLGEGPEKTRSQLLIMDRAADPVSPLLHELTFQAMAYDLLDIEQDTYRYETTGLSEAREKAVLLDEDDDLWVELRHMHIADVSKKVTELLRTFCESKRLTTDKANIKDLSQILKKMPQYQKELNKYSTHLHLADDCMKHFKGSVEKLCSVEQDLAMGSDAEGEKIKDSMKLIVPVLLDAAVPAYDKIEVLLLYILLRNGVSEENLAKLIQHANVQAHSSLIRNLEQLGGTVTNPGGSGTSSRLEPRERMEPTYQLSRWTPVIKDVMEDAVEDRLDRNLWPFVSDPAPTASSQAAVSARFGHWHKNKAGIEARAGPRLIVYVMGGVAMSEMRAAYEVTRATEGKWEVLIGSSHILTPTRFLDDLKALDKKLEDIALP [R405E],disrupting interaction strength
4,MAPSGLKAVVGEKILSGVIRSVKKDGEWKVLIMDHPSMRILSSCCKMSDILAEGITIVEDINKRREPIPSLEAIYLLSPTEKSVQALIKDFQGTPTFTYKAAHIFFTDTCPEPLFSELGRSRLAKVVKTLKEIHLAFLPYEAQVFSLDAPHSTYNLYCPFRAEERTRQLEVLAQQIATLCATLQEYPAIRYRKGPEDTAQLAHAVLAKLNAFKADTPSLGEGPEKTRSQLLIMDRAADPVSPLLHELTFQAMAYDLLDIEQDTYRYETTGLSEAREKAVLLDEDDDLWVELHHMHIADVSKKVTELLRTFCESKRLTTDKANIKDLSQILKKMPQYQKELNKYSTHLHLADDCMKHFKGSVEKLCSVEQDLAMGSDAEGEKIKDSMKLIVPVLLDAAVPAYDKIRVLLLYILLRNGVSEENLAKLIQHANVQAHSSLIRNLEQLGGTVTNPGGSGTSSRLEPRERMEPTYQLSRWTPVIKDVMEDAVEDRLDRNLWPFVSDPAPTASSQAAVSARFGHWHKNKAGIEARAGPRLIVYVMGGVAMSEMRAAYEVTRATEGKWEVLIGSSHILTPTRFLDDLKALDKKLEDIALP [R292H],disrupting interaction strength
